# Data from paper PMC7269643 (Science Advances, 2020).
# B1: VapB22 antitoxin (Rv2830c) from Mycobacterium tuberculosis, expressed alone from pET28b (natural protein)
# chain: MTATEVKAKILSLLDEVAQGEEIEITKHGRTVARLVAATGPHALKGRFSGVAMAAADDDELFTTGVSWNVS
# Molecular target: the molecule itself
# Test: AUC
protein,measurement,value
B1,stoichiometry N,2
